In paper PMC12516561 (2025):

B1: iRhom2 wild type (HA-tagged) [human] / V5-tagged FRMD8 [not stated] (parent complex)
chain 1: MASADKNGGSVSSVSSSRLQSRKPPNLSITIPPPEKETQAPGEQDSMLPEGFQNRRLKKSQPRTWAAHTTACPPSFLPKRKNPAYLKSVSLQEPRSRWQESSEKRPGFRRQASLSQSIRKGAAQWFGVSGDWEGQRQQWQRRSLHHCSMRYGRLKASCQRDLELPSQEAPSFQGTESPKPCKMPKIVDPLARGRAFRHPEEMDRPHAPHPPLTPGVLSLTSFTSVRSGYSHLPRRKRMSVAHMSLQAAAALLKGRSVLDATGQRCRVVKRSFAFPSFLEEDVVDGADTFDSSFFSKEEMSSMPDDVFESPPLSASYFRGIPHSASPVSPDGVQIPLKEYGRAPVPGPRRGKRIASKVKHFAFDRKKRHYGLGVVGNWLNRSYRRSISSTVQRQLESFDSHRPYFTYWLTFVHVIITLLVICTYGIAPVGFAQHVTTQLVLRNKGVYESVKYIQQENFWVGPSSIDLIHLGAKFSPCIRKDGQIEQLVLRERDLERDSGCCVQNDHSGCIQTQRKDCSETLATFVKWQDDTGPPMDKSDLGQKRTSGAVCHQDPRTCEEPASSGAHIWPDDITKWPICTEQARSNHTGFLHMDCEIKGRPCCIGTKGSCEITTREYCEFMHGYFHEEATLCSQVHCLDKVCGLLPFLNPEVPDQFYRLWLSLFLHAGVVHCLVSVVFQMTILRDLEKLAGWHRIAIIFILSGITGNLASAIFLPYRAEVGPAGSQFGLLACLFVELFQSWPLLERPWKAFLNLSAIVLFLFICGLLPWIDNIAHIFGFLSGLLLAFAFLPYITFGTSDKYRKRALILVSLLAFAGLFAALVLWLYIYPINWPWIEHLTCFPFTSRFCEKYELDQVLH
chain 2: MDGTEGSAGQPGPAERSHRSSVSSVGARAADVLVYLADDTVVPLAVENLPSLSAHELHRAVREVLQLPDIALDVFALWLVSPLLEVQLKPKHQPYKLGRQWPELLLRFTSAPDDDVAMDEPFLQFRRNVFFPKRRELQIHDEEVLRLLYEEAKGNVLAARYPCDVEDCEALGALVCRVQLGPYQPGRPAACDLREKLDSFLPAHLCKRGQSLFAALRGRGARAGPGEQGLLNAYRQVQEVSSDGGCEAALGTHYRAYLLKCHELPFYGCAFFHGEVDKPAQGFLHRGGRKPVSVAISLEGVHVIDSREKHVLLGLRFQELSWDHTSPEEEEPILWLEFDGDSEGTPVNKLLKIYSKQAELMSSLIEYCIELSQAAEPAGPQDSATGSPSDPSSSLAPVQRPKLRRQGSVVSSRIQHLSTIDYVEDGKGIRRVKPKRTTSFFSRQLSLGQGSYTVVQPGDSLEQG

Variants of: B1
Test: co-immunoprecipitation (HA-IP) with western blot quantification; iRhom1/2 DKO HEK293T cells co-transfected with V5-tagged FRMD8; three independent experiments; read off a plot

| Variant | ratio to parent |
| --- | --- |
| chain 1 S239A | ~1.2 |
| chain 1 P233A, chain 1 R234A, chain 1 R235A, chain 1 K236A, chain 1 R237A, chain 1 M238A | ~1.05 |
| chain 1 P233A, chain 1 R234A, chain 1 R235A, chain 1 K236A, chain 1 R237A, chain 1 M238A, chain 1 S239A | ~1.1 |
